Source: the supplement of paper PMC10567573

B1: TRAF3IP2 (parent)
chain: YGHDYPRAAYQQVIQPALPGQPLP

Variants of: B1
Experiment: protein stability index of a GFP-peptide fusion (GPS, HEK-293T) (PSI 1-6); higher = more stable
Conditions: c terminus: a fixed tail appended
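Further: lentivirally expressed fusions sorted by FACS into six bins by GFP to DsRed ratio, PSI derived from sequencing read proportions per bin multiplied by bin number.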

Variant | protein stability index
YGHDYPRAAYQQDIQPALPGQPLP | 2.64
YGHDYPRAAYQQKIQPALPGQPLP | 1.75
YGHDYPRAAYQQFIQPALPGQPLP | 2.38
YGHDYPRAAYQQMIQPALPGQPLP | 1.95
YGHDYPRAAYQQWIQPALPGQPLP | 2.4
YGHDYPRAAYQQIIQPALPGQPLP | 1.98
YGHDYPRAAYQQLIQPALPGQPLP | 2.26
YGHDYPRAAYQQQIQPALPGQPLP | 2.25
YGHDYPRAAYQQNIQPALPGQPLP | 2.09
YGHDYPRAAYQQEIQPALPGQPLP | 1.74
YGHDYPRAAYQQGIQPALPGQPLP | 2.45
YGHDYPRAAYQQTIQPALPGQPLP | 1.83
YGHDYPRAAYQQSIQPALPGQPLP | 2.6
YGHDYPRAAYQQRIQPALPGQPLP | 1.93
YGHDYPRAAYQQPIQPALPGQPLP | 2.52
YGHDYPRAAYQQCIQPALPGQPLP | 2.04
YGHDYPRAAYQQYIQPALPGQPLP | 2.03
YGHDYPRAAYQQHIQPALPGQPLP | 2.02
YGHDYPRAAYQQAIQPALPGQPLP | 2.17
YGHDYPRAAYMQVIQPALPGQPLP | 1.65
YGHDYPRAAYYQVIQPALPGQPLP | 2.52
YGHDYPRAAYCQVIQPALPGQPLP | 3.05
YGHDYPRAAYIQVIQPALPGQPLP | 2.94
YGHDYPRAAYNQVIQPALPGQPLP | 1.96

Variant | protein stability index
YGHDYPRAAYLQVIQPALPGQPLP | 3.77
YGHDYPRAAYTQVIQPALPGQPLP | 3.14
YGHDYPRAAYEQVIQPALPGQPLP | 2.09
YGHDYPRAAYGQVIQPALPGQPLP | 1.79
YGHDYPRAAYHQVIQPALPGQPLP | 2.48
YGHDYPRAAYVQVIQPALPGQPLP | 2.31
YGHDYPRAAYRQVIQPALPGQPLP | 1.59
YGHDYPRAAYWQVIQPALPGQPLP | 1.94
YGHDYPRAAYDQVIQPALPGQPLP | 2.05
YGHDYPRAAYFQVIQPALPGQPLP | 3.98
YGHDYPRAAYPQVIQPALPGQPLP | 1.69
YGHDYPRAAYKQVIQPALPGQPLP | 2.24
YGHDYPRAAYSQVIQPALPGQPLP | 2.15
YGHDYPRAAYAQVIQPALPGQPLP | 2.75
YGHDYPRAAKQQVIQPALPGQPLP | 2.36
YGHDYPRAAEQQVIQPALPGQPLP | 2.17
YGHDYPRAALQQVIQPALPGQPLP | 2
YGHDYPRAAFQQVIQPALPGQPLP | 2.33
YGHDYPRAANQQVIQPALPGQPLP | 1.85
YGHDYPRAACQQVIQPALPGQPLP | 2.39
YGHDYPRAAWQQVIQPALPGQPLP | 1.75
YGHDYPRAAMQQVIQPALPGQPLP | 1.65
YGHDYPRAAVQQVIQPALPGQPLP | 2.13
YGHDYPRAATQQVIQPALPGQPLP | 1.97

Variant | protein stability index
YGHDYPRAAQQQVIQPALPGQPLP | 2.07
YGHDYPRAAGQQVIQPALPGQPLP | 1.91
YGHDYPRAAPQQVIQPALPGQPLP | 2.28
YGHDYPRAAAQQVIQPALPGQPLP | 1.79
YGHDYPRAASQQVIQPALPGQPLP | 1.75
YGHDYPRAAHQQVIQPALPGQPLP | 2.52
YGHDYPRAARQQVIQPALPGQPLP | 1.7
YGHDYPRAADQQVIQPALPGQPLP | 1.97
YGHDYPRAAIQQVIQPALPGQPLP | 2.02
YGHDYPRAMYQQVIQPALPGQPLP | 1.98
YGHDYPRASYQQVIQPALPGQPLP | 1.71
YGHDYPRACYQQVIQPALPGQPLP | 2.34
YGHDYPRARYQQVIQPALPGQPLP | 2.4
YGHDYPRANYQQVIQPALPGQPLP | 1.73
YGHDYPRAYYQQVIQPALPGQPLP | 2.02
YGHDYPRAQYQQVIQPALPGQPLP | 2.2
YGHDYPRAWYQQVIQPALPGQPLP | 1.15
YGHDYPRADYQQVIQPALPGQPLP | 2.74
YGHDYPRAGYQQVIQPALPGQPLP | 2.45
YGHDYPRAHYQQVIQPALPGQPLP | 1.92
YGHDYPRAKYQQVIQPALPGQPLP | 2.4
YGHDYPRATYQQVIQPALPGQPLP | 1.97
YGHDYPRALYQQVIQPALPGQPLP | 2.16
YGHDYPRAPYQQVIQPALPGQPLP | 2.11

Variant | protein stability index
YGHDYPRAIYQQVIQPALPGQPLP | 1.52
YGHDYPRAFYQQVIQPALPGQPLP | 2.15
YGHDYPRAVYQQVIQPALPGQPLP | 2.04
YGHDYPRAEYQQVIQPALPGQPLP | 2.38
YGHDYPRAAYQQVEQPALPGQPLP | 2
YGHDYPRAAYQQVMQPALPGQPLP | 1.49
YGHDYPRAAYQQVDQPALPGQPLP | 1.22
YGHDYPRAAYQQVHQPALPGQPLP | 1.88
YGHDYPRAAYQQVAQPALPGQPLP | 1.5
YGHDYPRAAYQQVSQPALPGQPLP | 2.09
YGHDYPRAAYQQVYQPALPGQPLP | 2.52
YGHDYPRAAYQQVLQPALPGQPLP | 1.77
YGHDYPRAAYQQVPQPALPGQPLP | 2.14
YGHDYPRAAYQQVFQPALPGQPLP | 2.01
YGHDYPRAAYQQVNQPALPGQPLP | 1.92
YGHDYPRAAYQQVVQPALPGQPLP | 1.67
YGHDYPRAAYQQVRQPALPGQPLP | 1.74
YGHDYPRAAYQQVGQPALPGQPLP | 1.92
YGHDYPRAAYQQVCQPALPGQPLP | 2.49
YGHDYPRAAYQQVQQPALPGQPLP | 1.75
YGHDYPRAAYQQVWQPALPGQPLP | 2.33
YGHDYPRAAYQQVTQPALPGQPLP | 1.86
YGHDYPRAAYQQVKQPALPGQPLP | 2.31
YGHDYPSAAYQQVIQPALPGQPLP | 2.65

Variant | protein stability index
YGHDYPQAAYQQVIQPALPGQPLP | 2.56
YGHDYPWAAYQQVIQPALPGQPLP | 2.41
YGHDYPKAAYQQVIQPALPGQPLP | 2.18
YGHDYPYAAYQQVIQPALPGQPLP | 2.28
YGHDYPLAAYQQVIQPALPGQPLP | 2.27
YGHDYPDAAYQQVIQPALPGQPLP | 3.34
YGHDYPPAAYQQVIQPALPGQPLP | 2.41
YGHDYPIAAYQQVIQPALPGQPLP | 2.51
YGHDYPAAAYQQVIQPALPGQPLP | 2.46
YGHDYPNAAYQQVIQPALPGQPLP | 2.82
YGHDYPTAAYQQVIQPALPGQPLP | 2.6
YGHDYPFAAYQQVIQPALPGQPLP | 2.2
YGHDYPVAAYQQVIQPALPGQPLP | 2.56
YGHDYPMAAYQQVIQPALPGQPLP | 2.27
YGHDYPEAAYQQVIQPALPGQPLP | 3.87
YGHDYPGAAYQQVIQPALPGQPLP | 2.58
YGHDYPCAAYQQVIQPALPGQPLP | 2.44
YGHDYPHAAYQQVIQPALPGQPLP | 2.36
YGHDYPRFAYQQVIQPALPGQPLP | 2.94
YGHDYPRMAYQQVIQPALPGQPLP | 1.76
YGHDYPRQAYQQVIQPALPGQPLP | 2.65
YGHDYPRLAYQQVIQPALPGQPLP | 2.7
YGHDYPRNAYQQVIQPALPGQPLP | 2.3
YGHDYPRDAYQQVIQPALPGQPLP | 2.43

Variant | protein stability index
YGHDYPRHAYQQVIQPALPGQPLP | 3.06
YGHDYPRCAYQQVIQPALPGQPLP | 1.94
YGHDYPRYAYQQVIQPALPGQPLP | 2.24
YGHDYPRKAYQQVIQPALPGQPLP | 2.14
YGHDYPRTAYQQVIQPALPGQPLP | 2.8
YGHDYPRRAYQQVIQPALPGQPLP | 3.2
YGHDYPRVAYQQVIQPALPGQPLP | 2.59
YGHDYPRIAYQQVIQPALPGQPLP | 2.57
YGHDYPRSAYQQVIQPALPGQPLP | 1.93
YGHDYPRGAYQQVIQPALPGQPLP | 2.18
YGHDYPREAYQQVIQPALPGQPLP | 2.03
YGHDYPRPAYQQVIQPALPGQPLP | 2.35
YGHDYPRWAYQQVIQPALPGQPLP | 2.64
YGHDYPRAAYQMVIQPALPGQPLP | 3.06
YGHDYPRAAYQTVIQPALPGQPLP | 1.7
YGHDYPRAAYQKVIQPALPGQPLP | 2.37
YGHDYPRAAYQLVIQPALPGQPLP | 1.98
YGHDYPRAAYQIVIQPALPGQPLP | 2.59
YGHDYPRAAYQEVIQPALPGQPLP | 1.48
YGHDYPRAAYQSVIQPALPGQPLP | 2.13
YGHDYPRAAYQGVIQPALPGQPLP | 2.79
YGHDYPRAAYQVVIQPALPGQPLP | 3.04
YGHDYPRAAYQYVIQPALPGQPLP | 2.61
YGHDYPRAAYQRVIQPALPGQPLP | 2.17

Variant | protein stability index
YGHDYPRAAYQPVIQPALPGQPLP | 3.46
YGHDYPRAAYQNVIQPALPGQPLP | 1.65
YGHDYPRAAYQCVIQPALPGQPLP | 3.07
YGHDYPRAAYQFVIQPALPGQPLP | 2.56
YGHDYPRAAYQWVIQPALPGQPLP | 2.41
YGHDYPRAAYQDVIQPALPGQPLP | 1.58
YGHDYPRAAYQHVIQPALPGQPLP | 2.01
YGHDYPRAAYQAVIQPALPGQPLP | 1.96
YGHDYYRAAYQQVIQPALPGQPLP | 2.96
YGHDYKRAAYQQVIQPALPGQPLP | 2.9
YGHDYQRAAYQQVIQPALPGQPLP | 2.27
YGHDYRRAAYQQVIQPALPGQPLP | 1.99
YGHDYWRAAYQQVIQPALPGQPLP | 1.48
YGHDYLRAAYQQVIQPALPGQPLP | 1.73
YGHDYCRAAYQQVIQPALPGQPLP | 2.26
YGHDYIRAAYQQVIQPALPGQPLP | 1.69
YGHDYMRAAYQQVIQPALPGQPLP | 1.79
YGHDYNRAAYQQVIQPALPGQPLP | 2.55
YGHDYSRAAYQQVIQPALPGQPLP | 2.6
YGHDYTRAAYQQVIQPALPGQPLP | 2.73
YGHDYHRAAYQQVIQPALPGQPLP | 1.93
YGHDYERAAYQQVIQPALPGQPLP | 2.82
YGHDYGRAAYQQVIQPALPGQPLP | 3.41
YGHDYFRAAYQQVIQPALPGQPLP | 1.81

Variant | protein stability index
YGHDYVRAAYQQVIQPALPGQPLP | 1.56
YGHDYDRAAYQQVIQPALPGQPLP | 3.52
YGHDYARAAYQQVIQPALPGQPLP | 2.44
YGHDYPRAAYQQVIHPALPGQPLP | 2.46
YGHDYPRAAYQQVIIPALPGQPLP | 2.14
YGHDYPRAAYQQVIPPALPGQPLP | 2.45
YGHDYPRAAYQQVIKPALPGQPLP | 1.82
YGHDYPRAAYQQVIFPALPGQPLP | 2.68
YGHDYPRAAYQQVISPALPGQPLP | 2.01
YGHDYPRAAYQQVINPALPGQPLP | 1.63
YGHDYPRAAYQQVICPALPGQPLP | 2.22
YGHDYPRAAYQQVIRPALPGQPLP | 2.24
YGHDYPRAAYQQVIGPALPGQPLP | 2.42
YGHDYPRAAYQQVILPALPGQPLP | 2.23
YGHDYPRAAYQQVITPALPGQPLP | 1.62
YGHDYPRAAYQQVIMPALPGQPLP | 1.59
YGHDYPRAAYQQVIEPALPGQPLP | 2.1
YGHDYPRAAYQQVIDPALPGQPLP | 2.6
YGHDYPRAAYQQVIAPALPGQPLP | 1.74
YGHDYPRAAYQQVIVPALPGQPLP | 1.68
